The results in this text go back to publication PMC6570770, “In situ structure and assembly of the multidrug efflux pump AcrAB-TolC” (Nature Communications, 2019).

The series concerns the molecule itself. As to the kind of experiment: cryo-EM structure.

B1: AcrA (periplasmic adaptor protein of the AcrAB-TolC multidrug efflux pump) (natural protein)
chain: CDDKQAQQGGQQMPAVGVVTVKTEPLQITTELPGRTSAYRIAEVRPQVSGIILKRNFKEGSDIEAGVSLYQIDPATYQATYDSAKGDLAKAQAAANIAQLTVNRYQKLLGTQYISKQEYDQALADAQQANAAVTAAKAAVETARINLAYTKVTSPISGRIGKSNVTEGALVQNGQATALATVQQLDPIYVDVTQSSNDFLRLKQELANGTLKQENGKAKVSLITSDGIKFPQDGTLEFSDVTVDQTTGSITLRAIFPNPDHTLLPGMFVRARLEEGLNPNAILVPQQGVTRTPRGDATVLVVGADDKVETRPIVASQAIGDKWLVTEGLKAGDRVVISGLQKVRPGVQVKAQEVTADNNQQAASGAQPEQSKS
notes: also called periplasmic adaptor protein AcrA; source: E. coli BL21 (DE3), overexpressed from plasmid pAcBH (acrAB locus), in intact cells
Take B1: the stoichiometry N (usually the number of molecules, sites or subunits per partner or assembly) was 6.
